Experimental data: patent US20240400614A1, “CLEAVABLE PEPTIDES AND METHODS OF USE THEREOF” (Bright Peak Therapeutics AG, priority 2023, published 2024)
Square brackets hold non-standard residues; d marks the D form. Ends that are not written are not given here. Tyr(3-NO2) = N[C@@H](Cc1ccc(O)c([N+](=O)[O-])c1)C(=O)O; Nle = CCCC[C@H](N)C(=O)O; 2Abz = Nc1ccccc1C(=O)O

Experiments:
Format in all cases: biochemical
MMP-2 = biological target: T1, MMP-2 (Homo sapiens, UniProt P08253); test: FRET peptide cleavage efficiency with MMP-2
T1 construct: purchased SIGMA PF023
T1 sequence (P08253 110-660): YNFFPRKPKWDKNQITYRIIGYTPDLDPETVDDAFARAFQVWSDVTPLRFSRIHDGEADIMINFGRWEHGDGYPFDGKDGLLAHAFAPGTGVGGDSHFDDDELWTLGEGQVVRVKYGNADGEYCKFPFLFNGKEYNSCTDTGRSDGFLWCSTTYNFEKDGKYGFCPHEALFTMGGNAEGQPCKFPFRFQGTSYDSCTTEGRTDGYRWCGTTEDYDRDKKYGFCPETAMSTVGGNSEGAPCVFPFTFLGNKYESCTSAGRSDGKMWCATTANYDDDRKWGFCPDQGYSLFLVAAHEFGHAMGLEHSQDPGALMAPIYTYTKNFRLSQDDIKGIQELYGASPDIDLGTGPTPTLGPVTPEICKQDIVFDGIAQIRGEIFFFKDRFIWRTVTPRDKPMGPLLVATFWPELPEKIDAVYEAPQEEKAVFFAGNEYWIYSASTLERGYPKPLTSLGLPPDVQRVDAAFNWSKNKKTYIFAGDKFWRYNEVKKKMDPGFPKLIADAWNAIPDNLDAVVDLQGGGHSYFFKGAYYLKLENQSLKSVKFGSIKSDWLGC

MMP-7 = biological target: T2, MMP-7 (Homo sapiens, UniProt P09237); test: FRET peptide cleavage efficiency with MMP-7 (standard pH 7.5; also pH 6.5)
T2 construct: purchased SIGMA CC1059
T2 sequence (P09237 95-267): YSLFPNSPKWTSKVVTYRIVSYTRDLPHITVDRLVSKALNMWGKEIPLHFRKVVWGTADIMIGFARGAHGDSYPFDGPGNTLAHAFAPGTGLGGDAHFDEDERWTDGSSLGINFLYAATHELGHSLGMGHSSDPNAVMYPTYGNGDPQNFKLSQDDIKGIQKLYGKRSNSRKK

matriptase = biological target: T3, matriptase (Homo sapiens, UniProt Q9Y5Y6); test: FRET peptide cleavage efficiency with matriptase
T3 construct: purchased R&D Systems 3946-SEB
T3 sequence (Q9Y5Y6 615-855 limits assumed): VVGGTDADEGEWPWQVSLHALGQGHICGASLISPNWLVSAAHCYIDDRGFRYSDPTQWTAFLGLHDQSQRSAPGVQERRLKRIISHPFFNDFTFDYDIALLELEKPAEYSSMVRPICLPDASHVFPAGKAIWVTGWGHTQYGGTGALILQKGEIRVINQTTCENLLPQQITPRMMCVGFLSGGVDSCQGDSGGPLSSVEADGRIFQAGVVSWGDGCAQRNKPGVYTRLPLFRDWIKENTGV

uPA = uPA (Homo sapiens, UniProt P00749); test: FRET peptide cleavage efficiency with uPA
MMP-9 = biological target: T4, MMP-9 (Homo sapiens, UniProt P14780); test: FRET peptide cleavage efficiency with MMP-9 (standard pH 7.5; also pH 6.5)
T4 construct: purchased SIGMA PF024

[1] = t = 60 min, standard conditions (Table 8)
[2] = t = 120 min, standard conditions (Table 8)
[3] = t = 15 min, standard conditions (Table 8)
[4] = t = 15 min, 200 uM linker, 1 ug/ml protease, 37° C., buffer C pH 7.5
[5] = t = 60 min, 200 uM linker, 1 ug/ml protease, 37° C., buffer C pH 7.5
[6] = t = 120 min, 200 uM linker, 1 ug/ml protease, 37° C., buffer C pH 7.5
[7] = 200 uM linker, 1 ug/ml protease, 37° C., buffer B pH 9.0
[8] = 200 uM linker, 1 ug/ml protease, 37° C., buffer A pH 8.5

T4 sequence (P14780 94-707): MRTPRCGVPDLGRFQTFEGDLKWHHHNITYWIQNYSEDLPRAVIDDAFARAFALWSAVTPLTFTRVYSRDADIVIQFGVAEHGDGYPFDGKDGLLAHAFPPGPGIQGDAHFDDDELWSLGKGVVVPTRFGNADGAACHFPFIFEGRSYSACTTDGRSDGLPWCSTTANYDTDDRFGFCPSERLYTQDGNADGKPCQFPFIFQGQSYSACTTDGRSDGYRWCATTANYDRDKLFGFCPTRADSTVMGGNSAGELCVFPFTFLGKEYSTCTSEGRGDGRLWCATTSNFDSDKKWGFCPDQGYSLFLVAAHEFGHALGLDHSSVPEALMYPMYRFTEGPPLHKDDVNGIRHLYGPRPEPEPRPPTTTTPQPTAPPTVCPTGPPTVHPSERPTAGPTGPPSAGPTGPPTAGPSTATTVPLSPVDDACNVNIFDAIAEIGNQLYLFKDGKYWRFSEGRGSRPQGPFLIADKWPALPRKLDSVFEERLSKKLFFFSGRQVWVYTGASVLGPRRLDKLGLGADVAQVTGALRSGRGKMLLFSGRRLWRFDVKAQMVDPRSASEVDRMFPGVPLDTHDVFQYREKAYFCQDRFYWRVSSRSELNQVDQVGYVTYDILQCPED

Substance | % cleavage MMP-2 t = 15 min (MMP-2; t = 15 min (Table 9)) [%] | % cleavage MMP-2 t = 60 min (MMP-2; t = 60 min (Table 9)) [%] | % cleavage MMP-2 t = 60 min (MMP-2; [1]) [%] | % cleavage MMP-2 t = 120 min (MMP-2; t = 120 min (Table 9)) [%] | % cleavage MMP-2 t = 120 min (MMP-2; [2]) [%] | % cleavage MMP-7 t = 15 min (MMP-7; t = 15 min (Table 9)) [%] | % cleavage MMP-7 t = 15 min (MMP-7; [3]) [%] | % cleavage MMP-7 t = 60 min (MMP-7; t = 60 min (Table 9)) [%] | % cleavage MMP-7 t = 60 min (MMP-7; [1]) [%] | % cleavage MMP-7 t = 120 min (MMP-7; t = 120 min (Table 9)) [%] | % cleavage MMP-7 t = 120 min (MMP-7; [2]) [%] | % cleavage Matriptase t = 15 min (matriptase; standard conditions (Table 8)) [%] | % cleavage Matriptase t = 60 min (matriptase; standard conditions (Table 8)) [%] | % cleavage Matriptase t = 120 min (matriptase; standard conditions (Table 8)) [%] | % vcleavage uPA t = 15 min (uPA; standard conditions (Table 8)) [%] | % cleavage uPA t = 60 min (uPA; standard conditions (Table 8)) [%] | % cleavage uPA t = 120 min (uPA; standard conditions (Table 8)) [%] | % cleavage MMP-9 t = 15 min (MMP-9; t = 15 min (Table 9)) [%] | % cleavage MMP-9 t = 60 min (MMP-9; t = 60 min (Table 9)) [%] | % cleavage MMP-9 t = 120 min (MMP-9; t = 120 min (Table 9)) [%] | further results
SGRVAPQPLVD (not fully specified (N-terminus, C-terminus)) [LNK046] | 19 | 64 | 64 | 88 | 88 | 77 | 77 | 100 | 100 | 100 | 100 | 19 | 65 | 91 | 1 | 4 | 7 | 23 | 74 | 92 | % cleavage MMP-9 t = 15 min (MMP-9; [3]): 23%; % cleavage MMP-9 t = 60 min (MMP-9; [1]): 74%; % cleavage MMP-9 t = 120 min (MMP-9; [2]): 92%
RGRRVANYFGKL ([2Abz]RGRRVANYFGKL[Tyr(3-NO2)]-NH2) [LNK055] | 85 | 100 | – | 100 | – | 0 | – | 0 | – | 0 | – | – | – | – | – | – | – | 35 | 81 | 100 | % cleavage MMP-2 t = 15 min (MMP-2; [4]): 85%; % cleavage MMP-2 t = 60 min (MMP-2; [5]): 100%; % cleavage MMP-2 t = 120 min (MMP-2; [6]): 100%; % cleavage Matriptase t = 15 min (matriptase; [7]): 67%; % cleavage Matriptase t = 60 min (matriptase; [7]): 100%; % cleavage Matriptase t = 120 min (matriptase; [7]): 100%; % cleavage uPA t = 15 min (uPA; [8]): 2%; % cleavage uPA t = 60 min (uPA; [8]): 4%; % cleavage uPA t = 120 min (uPA; [8]): 8%
RGRKVANLVG ([2Abz]RGRKVANLVG[Tyr(3-NO2)]-NH2) [LNK031] | 77 | 100 | 100 | 100 | 100 | 22 | 22 | 74 | 74 | 93 | 93 | 99 | 100 | 100 | 1 | 1 | 2 | 75 | 100 | 100 | % cleavage MMP-9 t = 15 min (MMP-9; [3]): 75%; % cleavage MMP-9 t = 60 min (MMP-9; [1]): 100%; % cleavage MMP-9 t = 120 min (MMP-9; [2]): 100%
RGRRPLGLAG ([2Abz]RGRRPLGLAG[Tyr(3-NO2)]-NH2) [LNK049] | 89 | 100 | – | 100 | – | 1 | – | 4 | – | 8 | – | – | – | – | – | – | – | 56 | 100 | 100 | % cleavage MMP-2 t = 15 min (MMP-2; [4]): 89%; % cleavage MMP-2 t = 60 min (MMP-2; [5]): 100%; % cleavage MMP-2 t = 120 min (MMP-2; [6]): 100%; % cleavage Matriptase t = 15 min (matriptase; [7]): 16%; % cleavage Matriptase t = 60 min (matriptase; [7]): 70%; % cleavage Matriptase t = 120 min (matriptase; [7]): 100%; % cleavage uPA t = 15 min (uPA; [8]): 0%; % cleavage uPA t = 60 min (uPA; [8]): 0%; % cleavage uPA t = 120 min (uPA; [8]): 0%
SGRVAPYMLQG ([2Abz]SGRVAPYMLQG[Tyr(3-NO2)]-NH2) [LNK042] | 49 | 91 | 91 | 100 | 100 | 59 | 59 | 100 | 100 | 100 | 100 | 28 | 80 | 100 | 2 | 6 | 13 | 55 | 100 | 100 | % cleavage MMP-9 t = 15 min (MMP-9; [3]): 55%; % cleavage MMP-9 t = 60 min (MMP-9; [1]): 100%; % cleavage MMP-9 t = 120 min (MMP-9; [2]): 100%
SGRVANYFGKL ([2Abz]SGRVANYFGKL[Tyr(3-NO2)]-NH2) [LNK054] | 78 | 100 | – | 100 | – | 0 | – | 0 | – | 0 | – | – | – | – | – | – | – | 49 | 100 | 100 | % cleavage MMP-2 t = 15 min (MMP-2; [4]): 78%; % cleavage MMP-2 t = 60 min (MMP-2; [5]): 100%; % cleavage MMP-2 t = 120 min (MMP-2; [6]): 100%; % cleavage Matriptase t = 15 min (matriptase; [7]): 0%; % cleavage Matriptase t = 60 min (matriptase; [7]): 0%; % cleavage Matriptase t = 120 min (matriptase; [7]): 0%; % cleavage uPA t = 15 min (uPA; [8]): 33%; % cleavage uPA t = 60 min (uPA; [8]): 100%; % cleavage uPA t = 120 min (uPA; [8]): 100%
RGRKPY-Nle-LQG ([2Abz]RGRKPY[Nle]LQG[Tyr(3-NO2)]-NH2) [LNK036] | 27 | 70 | 70 | 88 | 88 | 34 | 34 | 88 | 88 | 100 | 100 | 76 | 100 | 100 | 0 | 0 | 0 | 28 | 87 | 100 | % cleavage MMP-9 t = 15 min (MMP-9; [3]): 28%; % cleavage MMP-9 t = 60 min (MMP-9; [1]): 87%; % cleavage MMP-9 t = 120 min (MMP-9; [2]): 100%
SGRVANPLGGSG ([2Abz]SGRVANPLGGSG[Tyr(3-NO2)]-NH2) [LNK053] | 2 | 5 | – | 8 | – | 0 | – | 0 | – | 0 | – | – | – | – | – | – | – | 1 | 3 | 4 | % cleavage MMP-2 t = 15 min (MMP-2; [4]): 2%; % cleavage MMP-2 t = 60 min (MMP-2; [5]): 5%; % cleavage MMP-2 t = 120 min (MMP-2; [6]): 8%; % cleavage Matriptase t = 15 min (matriptase; [7]): 3%; % cleavage Matriptase t = 60 min (matriptase; [7]): 11%; % cleavage Matriptase t = 120 min (matriptase; [7]): 20%; % cleavage uPA t = 15 min (uPA; [8]): 1%; % cleavage uPA t = 60 min (uPA; [8]): 5%; % cleavage uPA t = 120 min (uPA; [8]): 12%
